Laboratory results taken from US20140072613A1, “Compositions and Methods for Treating Cutaneous Scarring” (priority 2012, published 2014).

Legend:
Test in all cases: biochemical
Type in all cases: biochemical
266 human kinases [1] = biological target: 266 human kinases (Homo sapiens, UniProt O43353); details: RIPK2(h); 100 μM
Outline: (§1)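 Kinase phosphorylates cationic substrate with radiolabelled ATP phosphate; substrate retained on anionic filter membrane; scintillation count; % of 100% activity control.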

266 human kinases [2] = biological target: 266 human kinases (Homo sapiens, UniProt P08922); details: Ros(h); 100 μM
Outline: as §1

266 human kinases [3] = biological target: 266 human kinases (Homo sapiens, UniProt P22607); details: FGFR3(h); 100 μM
Outline: as §1

266 human kinases [4] = biological target: 266 human kinases (Homo sapiens, UniProt P24723); details: PKGη(h); 100 μM
Outline: as §1

266 human kinases [5] = biological target: 266 human kinases (Homo sapiens, UniProt P31749); details: PKBα(h); 100 μM
Outline: as §1

266 human kinases [6] = biological target: T1, 266 human kinases (Homo sapiens, UniProt P36896); details: ALK4(h); 100 μM
T1 sequence (P36896 24-505): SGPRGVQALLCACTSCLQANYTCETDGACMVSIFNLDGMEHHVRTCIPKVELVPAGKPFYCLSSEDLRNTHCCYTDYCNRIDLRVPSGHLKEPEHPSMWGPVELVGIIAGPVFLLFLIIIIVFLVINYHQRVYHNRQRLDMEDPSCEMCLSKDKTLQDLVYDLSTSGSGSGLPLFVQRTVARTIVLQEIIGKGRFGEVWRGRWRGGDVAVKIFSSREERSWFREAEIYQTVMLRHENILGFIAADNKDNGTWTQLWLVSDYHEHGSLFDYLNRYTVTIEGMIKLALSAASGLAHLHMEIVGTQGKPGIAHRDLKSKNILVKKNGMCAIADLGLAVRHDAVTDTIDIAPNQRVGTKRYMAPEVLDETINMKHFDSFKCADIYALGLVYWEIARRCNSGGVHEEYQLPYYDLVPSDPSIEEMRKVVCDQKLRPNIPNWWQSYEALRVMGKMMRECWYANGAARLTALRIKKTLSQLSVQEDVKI
Outline: as §1

266 human kinases [7] = biological target: 266 human kinases (Homo sapiens, UniProt P42684); details: Arg(h); 100 μM
Outline: as §1

266 human kinases [8] = biological target: 266 human kinases (Homo sapiens, UniProt P49841); details: 6SK3β(h); 100 μM
Outline: as §1

266 human kinases [9] = biological target: 266 human kinases (Homo sapiens, UniProt P54764); details: EphA4(h); 100 μM
Outline: as §1

266 human kinases [10] = biological target: 266 human kinases (Homo sapiens, UniProt Q02763, Y897S); details: Tie2(Y897S)(h); 100 μM
Outline: as §1

266 human kinases [11] = biological target: 266 human kinases (Homo sapiens, UniProt Q13177); details: PAK2(h); 100 μM
Outline: as §1

266 human kinases [12] = biological target: 266 human kinases (Homo sapiens, UniProt Q86V86); details: Pim-3(h); 100 μM
Outline: as §1

266 human kinases [13] = biological target: 266 human kinases (Homo sapiens, UniProt Q96SB4); details: SRPK1(h); 100 μM
Outline: as §1

266 human kinases [14] = biological target: T2, 266 human kinases (Homo sapiens, UniProt Q99683); details: ASK1(h); 100 μM
T2 sequence (Q99683 1-1374): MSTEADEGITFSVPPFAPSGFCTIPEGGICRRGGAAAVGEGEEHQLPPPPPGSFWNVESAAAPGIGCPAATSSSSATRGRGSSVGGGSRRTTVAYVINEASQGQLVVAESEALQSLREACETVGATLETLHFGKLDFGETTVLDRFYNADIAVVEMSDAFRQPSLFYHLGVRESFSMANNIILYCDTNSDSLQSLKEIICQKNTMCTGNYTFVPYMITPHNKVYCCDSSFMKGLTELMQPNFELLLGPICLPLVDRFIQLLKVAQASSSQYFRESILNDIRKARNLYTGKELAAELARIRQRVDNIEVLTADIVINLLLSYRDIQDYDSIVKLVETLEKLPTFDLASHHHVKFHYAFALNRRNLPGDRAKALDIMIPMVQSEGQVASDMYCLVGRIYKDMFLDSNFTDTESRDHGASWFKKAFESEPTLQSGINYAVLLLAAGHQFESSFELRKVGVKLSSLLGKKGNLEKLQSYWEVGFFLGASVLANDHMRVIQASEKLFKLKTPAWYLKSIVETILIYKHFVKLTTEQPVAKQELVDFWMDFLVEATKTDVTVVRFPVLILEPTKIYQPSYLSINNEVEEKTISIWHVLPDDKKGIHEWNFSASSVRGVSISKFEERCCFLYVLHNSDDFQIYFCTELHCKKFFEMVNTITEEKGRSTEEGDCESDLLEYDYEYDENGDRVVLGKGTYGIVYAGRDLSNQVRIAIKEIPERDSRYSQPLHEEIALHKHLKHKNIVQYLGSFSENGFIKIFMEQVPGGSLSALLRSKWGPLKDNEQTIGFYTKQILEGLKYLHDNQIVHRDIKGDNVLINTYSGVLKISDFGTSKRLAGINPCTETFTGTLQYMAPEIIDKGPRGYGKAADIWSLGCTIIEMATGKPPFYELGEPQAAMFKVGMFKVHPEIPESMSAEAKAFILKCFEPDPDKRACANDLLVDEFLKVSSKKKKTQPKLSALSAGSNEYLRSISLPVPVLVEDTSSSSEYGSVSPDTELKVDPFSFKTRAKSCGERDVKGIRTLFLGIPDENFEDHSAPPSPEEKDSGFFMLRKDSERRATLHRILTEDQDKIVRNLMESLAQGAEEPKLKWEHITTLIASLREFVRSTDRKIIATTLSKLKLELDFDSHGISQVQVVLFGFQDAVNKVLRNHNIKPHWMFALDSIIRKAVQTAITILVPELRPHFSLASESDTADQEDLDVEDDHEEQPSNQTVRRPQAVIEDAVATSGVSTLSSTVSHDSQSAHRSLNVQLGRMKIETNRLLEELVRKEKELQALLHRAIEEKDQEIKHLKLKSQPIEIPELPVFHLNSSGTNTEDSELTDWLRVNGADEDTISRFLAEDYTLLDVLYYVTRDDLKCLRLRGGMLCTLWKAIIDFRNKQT
Outline: as §1

266 human kinases (Homo sapiens, UniProt Q96SB4), sequence (Q96SB4 whole entry): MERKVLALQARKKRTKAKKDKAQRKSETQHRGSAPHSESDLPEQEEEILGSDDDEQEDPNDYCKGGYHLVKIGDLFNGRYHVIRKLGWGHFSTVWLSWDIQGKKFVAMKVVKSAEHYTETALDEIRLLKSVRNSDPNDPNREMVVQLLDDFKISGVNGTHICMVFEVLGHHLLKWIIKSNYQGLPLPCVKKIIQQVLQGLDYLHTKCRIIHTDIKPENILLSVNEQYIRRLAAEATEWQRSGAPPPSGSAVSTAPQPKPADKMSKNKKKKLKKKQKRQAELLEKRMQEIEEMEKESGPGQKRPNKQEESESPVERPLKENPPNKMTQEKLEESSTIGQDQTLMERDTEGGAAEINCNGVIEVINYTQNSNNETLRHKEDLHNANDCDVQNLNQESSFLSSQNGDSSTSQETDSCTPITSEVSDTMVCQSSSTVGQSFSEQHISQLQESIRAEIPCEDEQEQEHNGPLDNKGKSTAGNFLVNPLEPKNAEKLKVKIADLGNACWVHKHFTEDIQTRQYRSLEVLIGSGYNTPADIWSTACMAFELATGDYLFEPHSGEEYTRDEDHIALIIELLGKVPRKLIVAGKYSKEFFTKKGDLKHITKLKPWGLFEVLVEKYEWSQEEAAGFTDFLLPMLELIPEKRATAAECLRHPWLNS
266 human kinases (Homo sapiens, UniProt P42684), sequence (P42684 whole entry): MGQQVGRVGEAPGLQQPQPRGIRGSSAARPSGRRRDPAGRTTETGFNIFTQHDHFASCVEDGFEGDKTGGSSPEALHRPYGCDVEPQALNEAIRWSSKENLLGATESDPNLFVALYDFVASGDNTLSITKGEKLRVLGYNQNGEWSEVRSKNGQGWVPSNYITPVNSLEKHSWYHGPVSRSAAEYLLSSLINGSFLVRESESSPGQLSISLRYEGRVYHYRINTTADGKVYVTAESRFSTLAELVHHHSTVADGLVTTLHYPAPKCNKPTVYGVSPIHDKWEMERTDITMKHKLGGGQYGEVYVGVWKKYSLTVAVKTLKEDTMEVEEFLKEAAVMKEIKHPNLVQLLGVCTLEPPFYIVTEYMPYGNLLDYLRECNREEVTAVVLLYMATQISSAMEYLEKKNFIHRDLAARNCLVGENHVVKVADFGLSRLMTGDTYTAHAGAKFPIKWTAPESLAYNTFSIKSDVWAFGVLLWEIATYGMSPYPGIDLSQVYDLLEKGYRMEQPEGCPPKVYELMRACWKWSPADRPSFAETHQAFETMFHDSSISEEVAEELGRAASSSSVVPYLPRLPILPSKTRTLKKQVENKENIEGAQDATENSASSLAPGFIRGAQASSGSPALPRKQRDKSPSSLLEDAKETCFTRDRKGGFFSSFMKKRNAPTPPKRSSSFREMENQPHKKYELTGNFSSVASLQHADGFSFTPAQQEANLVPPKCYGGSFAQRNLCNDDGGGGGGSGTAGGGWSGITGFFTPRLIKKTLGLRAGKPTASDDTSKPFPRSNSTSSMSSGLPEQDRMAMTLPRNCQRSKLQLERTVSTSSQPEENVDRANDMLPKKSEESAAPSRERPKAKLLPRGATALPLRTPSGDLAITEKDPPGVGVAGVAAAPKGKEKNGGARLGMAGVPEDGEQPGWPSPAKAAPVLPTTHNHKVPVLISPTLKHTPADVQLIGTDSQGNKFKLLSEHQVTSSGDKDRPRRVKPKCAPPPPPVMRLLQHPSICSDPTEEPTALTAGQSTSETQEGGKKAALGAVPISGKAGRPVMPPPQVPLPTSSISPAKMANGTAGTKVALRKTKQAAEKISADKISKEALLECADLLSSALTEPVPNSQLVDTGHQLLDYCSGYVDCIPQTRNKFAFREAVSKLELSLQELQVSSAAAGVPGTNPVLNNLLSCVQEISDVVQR
266 human kinases (Homo sapiens, UniProt P24723), sequence (P24723 whole entry): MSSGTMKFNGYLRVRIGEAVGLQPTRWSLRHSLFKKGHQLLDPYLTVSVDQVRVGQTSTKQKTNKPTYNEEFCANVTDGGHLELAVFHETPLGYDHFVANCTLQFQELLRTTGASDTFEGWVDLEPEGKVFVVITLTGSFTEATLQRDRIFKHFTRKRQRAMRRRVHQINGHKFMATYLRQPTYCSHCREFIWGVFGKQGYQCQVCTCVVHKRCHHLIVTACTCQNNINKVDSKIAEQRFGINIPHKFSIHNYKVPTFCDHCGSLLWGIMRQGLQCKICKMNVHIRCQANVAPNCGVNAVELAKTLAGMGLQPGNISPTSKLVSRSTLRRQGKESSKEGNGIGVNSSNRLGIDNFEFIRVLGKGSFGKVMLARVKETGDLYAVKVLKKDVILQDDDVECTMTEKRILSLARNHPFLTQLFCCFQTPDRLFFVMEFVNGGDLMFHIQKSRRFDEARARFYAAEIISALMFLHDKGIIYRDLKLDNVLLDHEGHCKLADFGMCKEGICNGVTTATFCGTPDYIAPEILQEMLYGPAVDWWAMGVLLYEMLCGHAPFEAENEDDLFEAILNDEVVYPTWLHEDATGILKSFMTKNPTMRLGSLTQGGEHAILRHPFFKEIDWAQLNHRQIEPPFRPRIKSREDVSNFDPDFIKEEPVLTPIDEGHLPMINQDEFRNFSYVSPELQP
266 human kinases (Homo sapiens, UniProt Q13177), sequence (Q13177 whole entry): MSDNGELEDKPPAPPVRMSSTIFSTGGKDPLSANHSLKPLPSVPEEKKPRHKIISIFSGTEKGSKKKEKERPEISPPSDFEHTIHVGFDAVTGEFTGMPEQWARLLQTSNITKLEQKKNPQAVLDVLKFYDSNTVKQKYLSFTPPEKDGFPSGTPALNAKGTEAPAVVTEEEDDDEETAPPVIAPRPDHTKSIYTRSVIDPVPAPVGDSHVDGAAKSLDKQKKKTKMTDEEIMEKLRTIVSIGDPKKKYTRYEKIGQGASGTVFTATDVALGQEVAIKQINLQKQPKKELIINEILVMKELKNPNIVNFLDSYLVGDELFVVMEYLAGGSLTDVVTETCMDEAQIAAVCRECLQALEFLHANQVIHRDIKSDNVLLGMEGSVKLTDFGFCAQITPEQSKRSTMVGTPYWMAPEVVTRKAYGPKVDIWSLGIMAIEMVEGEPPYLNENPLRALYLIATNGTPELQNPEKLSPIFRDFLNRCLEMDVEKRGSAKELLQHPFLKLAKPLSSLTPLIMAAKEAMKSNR
266 human kinases (Homo sapiens, UniProt P54764), sequence (P54764 20-986): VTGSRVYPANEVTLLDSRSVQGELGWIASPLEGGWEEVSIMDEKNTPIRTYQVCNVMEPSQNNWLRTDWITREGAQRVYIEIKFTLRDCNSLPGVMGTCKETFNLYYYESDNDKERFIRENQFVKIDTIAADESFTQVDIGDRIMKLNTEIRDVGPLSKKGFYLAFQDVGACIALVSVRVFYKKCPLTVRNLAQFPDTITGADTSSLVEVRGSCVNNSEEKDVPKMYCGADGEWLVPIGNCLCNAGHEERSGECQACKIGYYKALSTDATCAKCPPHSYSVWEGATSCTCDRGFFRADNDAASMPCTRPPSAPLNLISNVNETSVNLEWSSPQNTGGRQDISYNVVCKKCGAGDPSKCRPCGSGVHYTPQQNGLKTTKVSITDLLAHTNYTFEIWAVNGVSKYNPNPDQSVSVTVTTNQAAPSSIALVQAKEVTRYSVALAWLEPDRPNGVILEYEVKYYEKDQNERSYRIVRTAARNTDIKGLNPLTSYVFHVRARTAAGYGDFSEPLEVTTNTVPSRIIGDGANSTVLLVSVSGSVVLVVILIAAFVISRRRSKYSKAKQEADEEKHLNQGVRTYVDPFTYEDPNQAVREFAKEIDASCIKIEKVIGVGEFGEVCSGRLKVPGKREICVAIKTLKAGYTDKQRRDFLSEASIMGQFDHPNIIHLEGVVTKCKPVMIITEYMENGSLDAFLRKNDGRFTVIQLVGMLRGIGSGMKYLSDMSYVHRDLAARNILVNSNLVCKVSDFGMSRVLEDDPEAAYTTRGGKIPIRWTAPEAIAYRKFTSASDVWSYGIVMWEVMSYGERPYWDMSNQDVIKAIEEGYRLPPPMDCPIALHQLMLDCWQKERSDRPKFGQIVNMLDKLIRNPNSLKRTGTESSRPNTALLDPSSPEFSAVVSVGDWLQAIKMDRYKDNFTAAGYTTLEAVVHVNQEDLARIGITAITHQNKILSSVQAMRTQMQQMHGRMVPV
266 human kinases (Homo sapiens, UniProt P49841), sequence (P49841 whole entry): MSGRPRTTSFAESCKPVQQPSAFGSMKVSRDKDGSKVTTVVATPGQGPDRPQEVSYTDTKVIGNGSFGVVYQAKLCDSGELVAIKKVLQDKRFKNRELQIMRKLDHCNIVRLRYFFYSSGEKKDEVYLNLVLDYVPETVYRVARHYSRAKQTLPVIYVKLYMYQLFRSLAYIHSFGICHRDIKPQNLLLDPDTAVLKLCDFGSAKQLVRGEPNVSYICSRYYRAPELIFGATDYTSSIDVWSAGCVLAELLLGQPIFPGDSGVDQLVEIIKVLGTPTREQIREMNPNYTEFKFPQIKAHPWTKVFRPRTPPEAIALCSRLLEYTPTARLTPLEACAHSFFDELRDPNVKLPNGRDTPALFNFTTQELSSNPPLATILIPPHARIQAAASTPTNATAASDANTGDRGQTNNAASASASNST

| Sequence | % activity (266 human kinases [1]) [%] | % activity (266 human kinases [2]) [%] | % activity (266 human kinases [3]) [%] | % activity (266 human kinases [4]) [%] | % activity (266 human kinases [5]) [%] | % activity (266 human kinases [6]) [%] | % activity (266 human kinases [7]) [%] | % activity (266 human kinases [8]) [%] | % activity (266 human kinases [9]) [%] | % activity (266 human kinases [10]) [%] | % activity (266 human kinases [11]) [%] | % activity (266 human kinases [12]) [%] | % activity (266 human kinases [13]) [%] | % activity (266 human kinases [14]) [%] |
| --- | --- | --- | --- | --- | --- | --- | --- | --- | --- | --- | --- | --- | --- | --- |
| HRRIKAWLKKIKALARQLGVAA (mammal) [MMI-0500] | 30 | 150 | 10 | 45 | 30 | 81 | 22 | 238 | 48 | 80 | 44 | 37 | 80 | −4 |
| YARAAARQARAKALNRQLGVA (mammal) [MMI-0200] | 98 | 86 | 208 | 101 | 110 | 152 | 82 | 132 | 127 | 85 | 69 | 94 | 93 | 101 |
